Assay results published in patent publication US20170355774A1 (Regeneron, published 2017).

T1: hGITR.mmh (human)
T1 construct: soluble monomeric construct; also called human (h) GITR.mmh; monomeric human GITR
T1 chain: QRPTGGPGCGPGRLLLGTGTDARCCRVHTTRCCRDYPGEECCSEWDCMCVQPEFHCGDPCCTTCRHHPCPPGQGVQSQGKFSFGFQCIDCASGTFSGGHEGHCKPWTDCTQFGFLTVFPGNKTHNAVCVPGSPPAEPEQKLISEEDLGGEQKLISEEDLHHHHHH

T2: hGITR.mFc (human)
T2 construct: soluble dimeric construct with mouse Fc; also called dimeric human GITR
T2 chain: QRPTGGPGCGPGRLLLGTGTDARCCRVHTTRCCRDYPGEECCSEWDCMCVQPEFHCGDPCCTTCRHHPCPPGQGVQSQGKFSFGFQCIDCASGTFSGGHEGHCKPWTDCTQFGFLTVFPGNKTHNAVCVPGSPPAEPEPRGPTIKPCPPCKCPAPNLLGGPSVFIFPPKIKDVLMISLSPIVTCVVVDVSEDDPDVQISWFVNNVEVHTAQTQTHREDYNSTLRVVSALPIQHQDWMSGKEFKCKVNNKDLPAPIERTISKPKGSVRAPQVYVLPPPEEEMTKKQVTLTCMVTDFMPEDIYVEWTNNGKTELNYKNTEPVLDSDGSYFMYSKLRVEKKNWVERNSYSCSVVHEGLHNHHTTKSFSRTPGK

T3: mfGITR.mmh (Macaca fasicularis)
T3 construct: soluble monomeric construct; also called Macaca fasicularis (mf) GITR.mmh; cynomolgus GITR protein
T3 chain: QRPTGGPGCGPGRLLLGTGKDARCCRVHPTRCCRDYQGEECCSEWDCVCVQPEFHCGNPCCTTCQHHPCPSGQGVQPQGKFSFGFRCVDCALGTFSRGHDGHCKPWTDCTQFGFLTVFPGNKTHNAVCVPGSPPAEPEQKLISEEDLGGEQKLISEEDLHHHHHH

T4: human GITR (amino acids M1-V241, NCBI Accession #NP_004186.1) expressed on cells (human, UniProt Q9Y5U5 26-241)
T4 sequence: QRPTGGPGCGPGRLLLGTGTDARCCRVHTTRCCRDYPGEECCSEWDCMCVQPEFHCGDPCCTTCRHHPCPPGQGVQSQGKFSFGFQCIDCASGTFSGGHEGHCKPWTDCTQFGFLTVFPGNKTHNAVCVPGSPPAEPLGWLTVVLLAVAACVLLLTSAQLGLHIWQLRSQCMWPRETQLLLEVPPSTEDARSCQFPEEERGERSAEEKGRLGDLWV

B1: H4H14525P (antibody, human IgG4, V domains shown)
VH: QVQLVESGGGVVQPGRSLRLSCAASGFTFSSYGMHWVRQAPGKGLEWVAVIWYVGSNKYYGESVKGRFTISRDNSKNTLYLQMNSLRDEDTAIYYCARGGQLGSFYYYGMDVWGQGTTVTVSS
VL: DIQMTQSPSSLSASVGDRVTITCRASQGIRNDLGWYQQKPGKAPKRLIYDVSSLQSGVPSRFSGSGSGTEFTLTISSLQPEDLATYYCLQHNSYPWTFGQGTKVEIK
notes: human IgG4 (H4H)
B2: H4H14532P2 (antibody, human IgG4, V domains shown)
VH: QVQLVESGGGVVQPGRSLRLSCSASGFTLSNFVMHWVRQAPGKGLEWVAVILYDGSNKYYADSVKGRFTISRDNSNNRLYLQMNSLRAEDTALYYCARGESLGSPIYYYYGLDVWGQGTTVTVSS
VL: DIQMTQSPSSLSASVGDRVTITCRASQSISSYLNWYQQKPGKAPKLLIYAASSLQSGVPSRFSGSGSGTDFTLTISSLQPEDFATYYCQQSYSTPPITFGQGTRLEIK
notes: human IgG4 (H4H)
B3: H4H14469P (antibody, human IgG4, V domains shown)
VH: QVQLVESGGGVVQPGGSLRLSCAVSGFTFSDYGMHWVRQVPGAGLEWVAVIYYEGSNKYYADSVKGRFTISRDNSKNTLYLQMNSLRVEDTSMYFCARGPLLGGNFYSYLMDVWGQGTTVTVSS
VL: AIQMTQSPSSLSASVGDRVTITCRASQGIRNGLGWYQQKPGKAPKLLIYTASSLQSGVPSRFSGSGSGTDFTLTISSLQPEDFATYYCLQDYNYPFSFGPGTKVDIK
notes: human IgG4 (H4H)

How the values were obtained:
hGITR.mmh = target: T1, hGITR.mmh; assay: SPR 37C, mAb capture
hGITR.mFc = target: T2, hGITR.mFc; assay: SPR 37C, mAb capture
mfGITR.mmh = target: T3, mfGITR.mmh; assay: SPR 37C, mAb capture
[1] = target: T4, human GITR (amino acids M1-V241, NCBI …); assay: cell-based or functional assay
[2] = target: T4, human GITR (amino acids M1-V241, NCBI …); assay: cell-based or functional assay; remark: listed apart in the source
[3] = target: T4, human GITR (amino acids M1-V241, NCBI …); assay: cell-based or functional assay; remark: listed apart in the source
[4] = target: T4, human GITR (amino acids M1-V241, NCBI …); assay: cell-based or functional assay; remark: listed apart in the source
[5] = target: T4, human GITR (amino acids M1-V241, NCBI …); assay: ECL cell binding, hGITR/HEK293-D9
Summary of the method: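 Cells blocked with 2% BSA, then antibody dilutions from 1.7 pM to 100 nM added 1 h at RT. Bound antibody detected with SULFO-TAG anti-human kappa antibody, electrochemiluminescence read, RLU fitted by four-parameter logistic; signal at 100 nM on hGITR cells versus parental cells also recorded.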

Row | Kd (hGITR.mmh) [nM] | koff (hGITR.mmh) [s⁻¹] | kon (hGITR.mmh) [M⁻¹ s⁻¹] | t½ (hGITR.mmh) [min] | Kd (hGITR.mFc) [nM] | koff (hGITR.mFc) [s⁻¹] | kon (hGITR.mFc) [M⁻¹ s⁻¹] | t½ (hGITR.mFc) [min] | Kd (mfGITR.mmh) [nM] | koff (mfGITR.mmh) [s⁻¹] | kon (mfGITR.mmh) [M⁻¹ s⁻¹] | t½ (mfGITR.mmh) [min] | % Activation, NF-kB-Luc, non-anchored [1] [%] | % Blocking, NF-kB-Luc, non-anchored [1] [%] | EC50, hGITR activation, NF-kB-Luc, non-anchored [1] [nM] | IC50, blocking of hGITRL stimulation, NF-kB-Luc, non-anchored [1] [nM] | fold activation, T-cell proliferation, plate-bound Ab 10.6 nM, donor 1 [2] [fold] | fold activation, T-cell proliferation, plate-bound Ab 10.6 nM, donor 2 [2] [fold] | fold activation, T-cell proliferation, plate-bound Ab 10.6 nM, donor 3 [2] [fold] | fold activation, T-cell proliferation, plate-bound Ab 10.6 nM, donor 4 [2] [fold] | also measured | Binder
1 | 52.4 | 0.0166 | 317000 | 0.7 | 0.427 | 0.000338 | 791000 | 34.2 | 155 | 0.0205 | 133000 | 0.6 | 20 | 70 | 1.1 | 1.4 | 6 | 1 | 1 | 2 | fold activation, T-cell proliferation, plate-bound Ab 10.6 nM, donor 5 [2]: 1 fold; fold activation, T-cell proliferation, plate-bound Ab 10.6 nM, donor 6 [2]: 3 fold; fold activation, T-cell proliferation, plate-bound Ab 10.6 nM, donor 7 [2]: 2 fold; fold activation, T-cell proliferation, plate-bound Ab 10.6 nM, donor 8 [2]: 1 fold; fold activation, T-cell proliferation, plate-bound Ab 10.6 nM, mean [2]: 2 fold; fold activation, T-cell proliferation, 33 nM, FcgR anchored, donor 1 [3]: 1.2 fold; fold activation, T-cell proliferation, 33 nM, FcgR anchored, donor 2 [3]: 0.8 fold; fold activation, T-cell proliferation, 33 nM, FcgR anchored, donor 3 [3]: 1 fold; fold activation, T-cell proliferation, 33 nM, FcgR anchored, donor 4 [3]: 1.5 fold; fold activation, T-cell proliferation, 33 nM, FcgR anchored, donor 5 [3]: 1.5 fold; fold activation, T-cell proliferation, 33 nM, FcgR anchored, mean [3]: 1.2 fold; fold activation, T-cell proliferation, 22 nM, non-anchored, donor 1 [4]: 0.7 fold; fold activation, T-cell proliferation, 22 nM, non-anchored, donor 2 [4]: 1 fold; fold activation, T-cell proliferation, 22 nM, non-anchored, donor 3 [4]: 0.9 fold; fold activation, T-cell proliferation, 22 nM, non-anchored, donor 4 [4]: 1 fold; fold activation, T-cell proliferation, 22 nM, non-anchored, mean [4]: 0.9 fold; Average Signal (RLU) at 100 nM [5]: 8840 RLU; EC50 [5]: 0.6 nM | B1
2 | 18.5 | 0.00645 | 348000 | 1.8 | 0.373 | 0.000269 | 720000 | 42.9 | 24.9 | 0.00648 | 260000 | 1.8 | 30 | 90 | 1.2 | 1 | 2 | 6 | 6 | 12 | fold activation, T-cell proliferation, plate-bound Ab 10.6 nM, donor 5 [2]: 6 fold; fold activation, T-cell proliferation, plate-bound Ab 10.6 nM, donor 6 [2]: 19 fold; fold activation, T-cell proliferation, plate-bound Ab 10.6 nM, donor 7 [2]: 7 fold; fold activation, T-cell proliferation, plate-bound Ab 10.6 nM, donor 8 [2]: 2 fold; fold activation, T-cell proliferation, plate-bound Ab 10.6 nM, mean [2]: 8 fold; fold activation, T-cell proliferation, 33 nM, FcgR anchored, donor 1 [3]: 0.8 fold; fold activation, T-cell proliferation, 33 nM, FcgR anchored, donor 2 [3]: 0.9 fold; fold activation, T-cell proliferation, 33 nM, FcgR anchored, donor 3 [3]: 1 fold; fold activation, T-cell proliferation, 33 nM, FcgR anchored, donor 4 [3]: 1.7 fold; fold activation, T-cell proliferation, 33 nM, FcgR anchored, donor 5 [3]: 2.1 fold; fold activation, T-cell proliferation, 33 nM, FcgR anchored, mean [3]: 1.3 fold; fold activation, T-cell proliferation, 22 nM, non-anchored, donor 1 [4]: 0.7 fold; fold activation, T-cell proliferation, 22 nM, non-anchored, donor 2 [4]: 0.8 fold; fold activation, T-cell proliferation, 22 nM, non-anchored, donor 3 [4]: 1 fold; fold activation, T-cell proliferation, 22 nM, non-anchored, donor 4 [4]: 1.1 fold; fold activation, T-cell proliferation, 22 nM, non-anchored, mean [4]: 0.9 fold; Average Signal (RLU) at 100 nM [5]: 5740 RLU; EC50 [5]: 0.43 nM | B2
3 | 43 | 0.0122 | 284000 | 0.9 | 0.335 | 0.000401 | 1.2e+06 | 28.8 | 41.1 | 0.00243 | 59100 | 4.7 | 50 | 90 | 2.3 | 0.7 | 3 | 12 | 12 | 15 | fold activation, T-cell proliferation, plate-bound Ab 10.6 nM, donor 5 [2]: 12 fold; fold activation, T-cell proliferation, plate-bound Ab 10.6 nM, donor 6 [2]: 17 fold; fold activation, T-cell proliferation, plate-bound Ab 10.6 nM, donor 7 [2]: 11 fold; fold activation, T-cell proliferation, plate-bound Ab 10.6 nM, donor 8 [2]: 11 fold; fold activation, T-cell proliferation, plate-bound Ab 10.6 nM, mean [2]: 12 fold; fold activation, T-cell proliferation, 33 nM, FcgR anchored, donor 1 [3]: 0.7 fold; fold activation, T-cell proliferation, 33 nM, FcgR anchored, donor 2 [3]: 1 fold; fold activation, T-cell proliferation, 33 nM, FcgR anchored, donor 3 [3]: 0.9 fold; fold activation, T-cell proliferation, 33 nM, FcgR anchored, donor 4 [3]: 1.5 fold; fold activation, T-cell proliferation, 33 nM, FcgR anchored, donor 5 [3]: 1.5 fold; fold activation, T-cell proliferation, 33 nM, FcgR anchored, mean [3]: 1.1 fold; fold activation, T-cell proliferation, 22 nM, non-anchored, donor 1 [4]: 0.9 fold; fold activation, T-cell proliferation, 22 nM, non-anchored, donor 2 [4]: 0.8 fold; fold activation, T-cell proliferation, 22 nM, non-anchored, donor 3 [4]: 1 fold; fold activation, T-cell proliferation, 22 nM, non-anchored, donor 4 [4]: 0.9 fold; fold activation, T-cell proliferation, 22 nM, non-anchored, mean [4]: 0.9 fold; Average Signal (RLU) at 100 nM [5]: 5230 RLU; EC50 [5]: 0.23 nM | B3
